Legend:
Experiment in all cases: biochemical
Format in all cases: biochemical
[1] = target: T1, 266 human kinases (Homo sapiens, UniProt P51813); conditions: Bmx(h); 100 μM
T1 sequence (P51813 1-675): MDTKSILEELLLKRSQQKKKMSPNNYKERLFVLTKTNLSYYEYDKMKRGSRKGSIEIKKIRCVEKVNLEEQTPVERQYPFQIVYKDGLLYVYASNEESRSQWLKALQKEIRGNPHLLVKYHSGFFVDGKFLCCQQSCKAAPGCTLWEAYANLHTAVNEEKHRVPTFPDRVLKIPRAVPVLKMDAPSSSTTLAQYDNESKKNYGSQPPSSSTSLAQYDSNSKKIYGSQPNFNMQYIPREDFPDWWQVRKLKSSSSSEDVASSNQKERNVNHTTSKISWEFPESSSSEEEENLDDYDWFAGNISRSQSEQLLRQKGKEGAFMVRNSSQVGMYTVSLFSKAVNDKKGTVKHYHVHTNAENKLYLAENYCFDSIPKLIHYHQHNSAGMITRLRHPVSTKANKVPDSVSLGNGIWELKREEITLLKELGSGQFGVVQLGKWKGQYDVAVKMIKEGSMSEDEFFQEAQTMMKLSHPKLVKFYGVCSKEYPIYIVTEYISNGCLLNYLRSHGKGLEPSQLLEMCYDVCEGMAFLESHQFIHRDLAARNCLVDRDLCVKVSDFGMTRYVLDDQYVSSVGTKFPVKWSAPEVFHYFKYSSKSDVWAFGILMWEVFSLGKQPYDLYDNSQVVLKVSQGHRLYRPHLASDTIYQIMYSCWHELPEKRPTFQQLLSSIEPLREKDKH
Method in brief: (§1)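 Radiometric filter-binding format: a positively charged substrate takes up radiolabelled phosphate from ATP unless the kinase is inhibited, then is captured on a negatively charged filter membrane. Counts from scintillation are expressed relative to a 100% activity control.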

[2] = target: 266 human kinases (Homo sapiens, UniProt O96017, R145W); conditions: CHK2(R145W)(h); 100 μM
Method in brief: as §1

[3] = target: 266 human kinases (Homo sapiens, UniProt P15735); conditions: PhKγ2(h); 100 μM
Method in brief: as §1

[4] = target: 266 human kinases (Homo sapiens, UniProt P12931); conditions: 100 μM
Method in brief: as §1

[5] = target: 266 human kinases (Homo sapiens, UniProt P51812); conditions: Rsk2(h); 100 μM
Method in brief: as §1

[6] = target: T2, 266 human kinases (Homo sapiens, UniProt Q12866); conditions: Mer(h); 100 μM
T2 sequence (Q12866 21-999): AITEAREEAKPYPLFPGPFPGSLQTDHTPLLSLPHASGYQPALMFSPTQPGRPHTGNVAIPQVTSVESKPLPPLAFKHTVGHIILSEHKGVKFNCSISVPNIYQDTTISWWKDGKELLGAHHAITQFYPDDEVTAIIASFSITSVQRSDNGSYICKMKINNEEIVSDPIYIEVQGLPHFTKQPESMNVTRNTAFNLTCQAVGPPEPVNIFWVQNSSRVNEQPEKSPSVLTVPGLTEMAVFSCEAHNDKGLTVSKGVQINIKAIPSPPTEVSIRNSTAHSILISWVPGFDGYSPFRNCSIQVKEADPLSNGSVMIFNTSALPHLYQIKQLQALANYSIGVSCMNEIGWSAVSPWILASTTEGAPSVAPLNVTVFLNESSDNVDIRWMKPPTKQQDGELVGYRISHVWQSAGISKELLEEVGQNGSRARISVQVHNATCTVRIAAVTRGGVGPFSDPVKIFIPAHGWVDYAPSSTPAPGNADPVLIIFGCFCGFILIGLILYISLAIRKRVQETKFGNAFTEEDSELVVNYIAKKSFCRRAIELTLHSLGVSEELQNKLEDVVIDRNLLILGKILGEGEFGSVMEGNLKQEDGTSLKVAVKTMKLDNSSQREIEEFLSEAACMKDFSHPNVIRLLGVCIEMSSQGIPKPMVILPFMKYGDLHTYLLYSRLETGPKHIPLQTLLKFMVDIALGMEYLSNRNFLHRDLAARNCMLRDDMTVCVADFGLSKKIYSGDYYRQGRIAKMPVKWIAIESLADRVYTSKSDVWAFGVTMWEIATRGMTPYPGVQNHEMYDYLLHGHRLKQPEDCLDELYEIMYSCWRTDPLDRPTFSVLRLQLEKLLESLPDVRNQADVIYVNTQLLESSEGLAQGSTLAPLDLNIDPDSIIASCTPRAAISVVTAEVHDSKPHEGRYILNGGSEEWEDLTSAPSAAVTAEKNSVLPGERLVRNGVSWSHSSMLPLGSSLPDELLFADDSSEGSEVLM
Method in brief: as §1

[7] = target: 266 human kinases (Homo sapiens, UniProt Q15375); conditions: EphA7(h); 100 μM
Method in brief: as §1

[8] = target: 266 human kinases (Homo sapiens, UniProt P22455); conditions: FGFR4(h); 100 μM
Method in brief: as §1

[9] = target: 266 human kinases (Homo sapiens, UniProt P43405); conditions: Syk(h); 100 μM
Method in brief: as §1

[10] = target: 266 human kinases (Homo sapiens, UniProt P08581, D1228H); conditions: Met(D1246H)(h); 100 μM
Method in brief: as §1

Chain of 266 human kinases (Homo sapiens, UniProt P51812) (P51812 whole entry): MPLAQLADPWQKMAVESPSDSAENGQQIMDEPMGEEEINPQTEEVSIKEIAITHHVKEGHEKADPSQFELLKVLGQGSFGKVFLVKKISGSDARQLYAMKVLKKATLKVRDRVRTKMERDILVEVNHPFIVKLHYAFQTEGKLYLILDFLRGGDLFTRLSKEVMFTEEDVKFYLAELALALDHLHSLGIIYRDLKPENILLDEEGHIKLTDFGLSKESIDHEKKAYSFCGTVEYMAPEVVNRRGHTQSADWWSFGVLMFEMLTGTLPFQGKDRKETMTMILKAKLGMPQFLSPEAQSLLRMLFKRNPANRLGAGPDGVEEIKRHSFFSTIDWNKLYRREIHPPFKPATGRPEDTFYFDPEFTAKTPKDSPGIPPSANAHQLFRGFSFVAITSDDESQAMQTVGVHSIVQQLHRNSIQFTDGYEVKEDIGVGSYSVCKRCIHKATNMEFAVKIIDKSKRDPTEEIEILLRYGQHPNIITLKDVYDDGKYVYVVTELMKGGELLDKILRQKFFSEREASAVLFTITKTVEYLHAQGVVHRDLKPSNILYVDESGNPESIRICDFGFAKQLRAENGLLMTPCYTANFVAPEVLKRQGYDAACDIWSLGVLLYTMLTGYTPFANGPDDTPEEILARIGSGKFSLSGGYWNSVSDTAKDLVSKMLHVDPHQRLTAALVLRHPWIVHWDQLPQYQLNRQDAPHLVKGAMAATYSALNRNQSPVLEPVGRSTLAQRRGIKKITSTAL
Chain of 266 human kinases (Homo sapiens, UniProt Q15375) (Q15375 28-998): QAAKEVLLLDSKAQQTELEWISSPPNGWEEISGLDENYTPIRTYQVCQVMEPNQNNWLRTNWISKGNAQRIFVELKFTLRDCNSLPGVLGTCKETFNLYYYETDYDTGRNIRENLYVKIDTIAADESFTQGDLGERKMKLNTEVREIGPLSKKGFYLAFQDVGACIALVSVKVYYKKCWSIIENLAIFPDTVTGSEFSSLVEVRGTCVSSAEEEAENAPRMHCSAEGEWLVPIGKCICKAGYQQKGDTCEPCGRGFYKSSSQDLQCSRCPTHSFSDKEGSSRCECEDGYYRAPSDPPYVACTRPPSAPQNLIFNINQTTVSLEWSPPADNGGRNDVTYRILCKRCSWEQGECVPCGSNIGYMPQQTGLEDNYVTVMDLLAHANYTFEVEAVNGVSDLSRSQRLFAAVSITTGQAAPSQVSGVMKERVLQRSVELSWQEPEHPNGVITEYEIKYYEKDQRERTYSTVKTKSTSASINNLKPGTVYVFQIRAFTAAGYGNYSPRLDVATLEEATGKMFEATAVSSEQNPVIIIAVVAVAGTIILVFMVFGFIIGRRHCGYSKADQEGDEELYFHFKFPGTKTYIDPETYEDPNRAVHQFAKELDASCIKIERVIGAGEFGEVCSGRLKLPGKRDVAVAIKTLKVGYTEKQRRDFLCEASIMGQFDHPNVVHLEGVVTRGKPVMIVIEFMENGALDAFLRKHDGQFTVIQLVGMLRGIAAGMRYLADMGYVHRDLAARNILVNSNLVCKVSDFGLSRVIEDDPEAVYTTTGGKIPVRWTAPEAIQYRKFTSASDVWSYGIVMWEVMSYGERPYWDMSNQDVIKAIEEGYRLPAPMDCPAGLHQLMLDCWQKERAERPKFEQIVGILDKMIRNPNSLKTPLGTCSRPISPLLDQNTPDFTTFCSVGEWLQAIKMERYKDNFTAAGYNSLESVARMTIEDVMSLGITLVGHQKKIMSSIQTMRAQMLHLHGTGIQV
Chain of 266 human kinases (Homo sapiens, UniProt P15735) (P15735 whole entry): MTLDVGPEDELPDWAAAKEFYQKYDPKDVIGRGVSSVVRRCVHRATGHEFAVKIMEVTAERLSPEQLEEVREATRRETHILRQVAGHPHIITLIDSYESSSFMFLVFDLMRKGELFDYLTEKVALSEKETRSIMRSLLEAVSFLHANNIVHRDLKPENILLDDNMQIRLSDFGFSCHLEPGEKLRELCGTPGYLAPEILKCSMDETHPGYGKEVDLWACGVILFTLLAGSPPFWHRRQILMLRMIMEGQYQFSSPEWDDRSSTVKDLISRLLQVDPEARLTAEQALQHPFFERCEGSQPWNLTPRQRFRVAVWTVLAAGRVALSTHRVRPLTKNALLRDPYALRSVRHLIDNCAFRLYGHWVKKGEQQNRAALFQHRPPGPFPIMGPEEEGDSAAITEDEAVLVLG
Chain of 266 human kinases (Homo sapiens, UniProt O96017, R145W) (O96017 whole entry R145W): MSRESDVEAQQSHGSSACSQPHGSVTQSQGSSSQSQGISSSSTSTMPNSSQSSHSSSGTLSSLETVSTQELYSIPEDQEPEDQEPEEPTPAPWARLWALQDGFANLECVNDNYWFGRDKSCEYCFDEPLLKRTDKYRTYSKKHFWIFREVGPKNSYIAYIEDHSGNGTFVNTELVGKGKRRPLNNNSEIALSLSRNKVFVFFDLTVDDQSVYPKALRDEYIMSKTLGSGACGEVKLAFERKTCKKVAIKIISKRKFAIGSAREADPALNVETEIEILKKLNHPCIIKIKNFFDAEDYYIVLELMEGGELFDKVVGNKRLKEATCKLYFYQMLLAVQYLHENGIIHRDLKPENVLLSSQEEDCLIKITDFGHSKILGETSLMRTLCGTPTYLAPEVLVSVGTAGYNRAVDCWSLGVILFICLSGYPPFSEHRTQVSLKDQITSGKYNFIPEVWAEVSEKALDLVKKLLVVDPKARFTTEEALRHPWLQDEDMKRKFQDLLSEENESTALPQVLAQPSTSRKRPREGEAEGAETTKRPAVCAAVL

Row | Sequence | % activity [1] [%] | % activity [2] [%] | % activity [3] [%] | % activity ([4]; Src(1-530)(h)) [%] | % activity ([4]; cSRC(h)) [%] | % activity [5] [%] | % activity [6] [%] | % activity [7] [%] | % activity [8] [%] | % activity [9] [%] | % activity [10] [%]
1 | HRRIKAWLKKIKALARQLGVAA (mammal) [MMI-0500] | 45 | 3 | 16 | 21 | 30 | 14 | 17 | 189 | 3 | 5 | 150
2 | YARAAARQARAKALNRQLGVA (mammal) [MMI-0200] | 76 | 81 | 86 | 75 | 32 | 101 | 90 | 220 | 75 | 36 | 139

— patent US20140072613A1, “Compositions and Methods for Treating Cutaneous Scarring” (priority 2012, published 2014)
